Source: patent publication US20250129150A1 (APOGEE THERAPEUTICS, published 2025)

target: hIL-13 (human, UniProt P35225 35-146, limits assumed); assay: cell-based or functional assay
Sequence (P35225 other isoform, or with tags, fused parts or gaps limits assumed): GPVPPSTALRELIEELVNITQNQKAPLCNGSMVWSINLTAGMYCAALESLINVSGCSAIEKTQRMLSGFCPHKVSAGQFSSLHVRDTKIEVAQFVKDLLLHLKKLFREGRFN

TARC Release IC50 (A549 cells)	Binder
0.9 nM	Construct 98 (antibody, human IgG1, kappa) heavy: EVQLLESGGGLVQPGGSLRLSCAASGFSLNAYSVNWVRQAPGKGLEWLGMIWGDGKIVYNSALKSRLTISKDSSKNTVYLQMNSLRAEDTAVYYCAGDGYYPYAMDNWGQGTTVTVSSASTKGPSVFPLAPSSKSTSGGTAALGCLVKDYFPEPVTVSWNSGALTSGVHTFPAVLQSSGLYSLSSVVTVPSSSLGTQTYICNVNHKPSNTKVDKKVEPKSCDKTHTCPPCPAPELAGAPSVFLFPPKPKDTLYITREPEVTCVVVDVSHEDPEVKFNWYVDGVEVHNAKTKPREEQYNSTYRVVSVLTVLHQDWLNGKEYKCKVSNKALPAPIEKTISKAKGQPREPQVYTLPPSRDELTKNQVSLTCLVKGFYPSDIAVEWESNGQPENNYKTTPPVLDSDGSFFLYSKLTVDKSRWQQGNVFSCSVMHEALHNHYTQKSLSLSPG light: DIQLTQSPSSLSASVGDRVTITCRASKSVDSYGNSFMHWYQQKPGKAPKLLIYLASELESGVPSRFSGSGSGTDFTLTISSLQPEDFATYYCQQNNEDPRTFGGGTKVEIKRTVAAPSVFIFPPSDEQLKSGTASVVCLLNNFYPREAKVQWKVDNALQSGNSQESVTEQDSKDSTYSLSSTLTLSKADYEKHKVYACEVTHQGLSSPVTKSFNRGEC
1 nM	Construct 96 (antibody, human IgG1, kappa, V domains shown) VH: EVQLLESGGGLVQPGGSLRLSCAASGFSLNAYSVNWVRQAPGKGLEWLGMIWGDGKIVYNSALKSRLTISKDSSKNTVYLQMNSLRAEDTAVYYCAGDGYYPYAMDNWGQGTTVTVSS VL: DIQLTQSPSSLSASVGDRVTITCRASKSVDSYGNSFMHWYQQKPGKAPKLLIYLASDLESGVPSRFSGSGSGTDFTLTISSLQPEDFATYYCQQNNEDPRTFGGGTKVEIKR
1 nM	Construct 108 (antibody, human IgG1, kappa, V domains shown) VH: EVQLLESGGGLVQPGGSLRLSCAASGFSLDAYSVNWVRQAPGKGLEWLGMIWGDGKIVYNSALKSRLTISKDSSKNTVYLQMNSLRAEDTAVYYCAGDGYYPYAMDNWGQGTTVTVSS VL: DIQLTQSPSSLSASVGDRVTITCRASKSVDSYGNSFMHWYQQKPGKAPKLLIYLASNLESGVPSRFSGSGSGTDFTLTISSLQPEDFATYYCQQNNEDPRTFGGGTKVEIKR
1 nM	Construct 110 (antibody, human IgG1, kappa, V domains shown) VH: EVQLLESGGGLVQPGGSLRLSCAASGFSLSAYSVNWVRQAPGKGLEWLGMIWGDGKIVYNSALKSRLTISKDSSKNTVYLQMNSLRAEDTAVYYCAGDGYYPYAMDNWGQGTTVTVSS VL: DIQLTQSPSSLSASVGDRVTITCRASKSVDSYGNSFMHWYQQKPGKAPKLLIYLASNLESGVPSRFSGSGSGTDFTLTISSLQPEDFATYYCQQNNEDPRTFGGGTKVEIKR
1.3 nM	Construct 107 (antibody, human IgG1, kappa, V domains shown) VH: EVQLLESGGGLVQPGGSLRLSCAASGFSLHAYSVNWVRQAPGKGLEWLGMIWGDGKIVYNSALKSRLTISKDSSKNTVYLQMNSLRAEDTAVYYCAGDGYYPYAMDNWGQGTTVTVSS VL: DIQLTQSPSSLSASVGDRVTITCRASKSVDSYGNSFMHWYQQKPGKAPKLLIYLASNLESGVPSRFSGSGSGTDFTLTISSLQPEDFATYYCQQNNEDPRTFGGGTKVEIKR
1.1 nM	Construct 114 (antibody, human IgG1, kappa, V domains shown) VH: EVQLLESGGGLVQPGGSLRLSCAASGFSLNQYSVNWVRQAPGKGLEWLGMIWGDGKIVYNSALKSRLTISKDSSKNTVYLQMNSLRAEDTAVYYCAGDGYYPYAMDNWGQGTTVTVSS VL: DIQLTQSPSSLSASVGDRVTITCRASKSVDSYGNSFMHWYQQKPGKAPKLLIYLASNLESGVPSRFSGSGSGTDFTLTISSLQPEDFATYYCQQNNEDPRTFGGGTKVEIKR
